The term Kd denotes the concentration at which binding is half-saturated. Low values mean a tighter complex, high ones a looser complex.

For the assay, the target named is Cyclophilin A (Homo sapiens, UniProt P62937). Nature of the assay: SPR.

B1: HIV-1 capsid protein CA (unassembled) (protein)
chain: not shown
In turn, B1 came in with a Kd of about 27 µM.

For the origin of these results see paper PMC6449974 (2019).
